This series deals with the molecule itself. Nature of the series: SEC-MALS. A general note: SEC sorts molecules by how far they enter the pores of the column.

The stoichiometry N is the number of molecules, sites or subunits per partner or assembly.

B1: full-length human BicD2 isoform 2 (natural protein, UniProt Q8TD16-2 1-855, looked up)
chain: MSAPSEEEEYARLVMEAQPEWLRAEVKRLSHELAETTREKIQAAEYGLAVLEEKHQLKLQFEELEVDYEAIRSEMEQLKEAFGQAHTNHKKVAADGESREESLIQESASKEQYYVRKVLELQTELKQLRNVLTNTQSENERLASVAQELKEINQNVEIQRGRLRDDIKEYKFREARLLQDYSELEEENISLQKQVSVLRQNQVEFEGLKHEIKRLEEETEYLNSQLEDAIRLKEISERQLEEALETLKTEREQKNSLRKELSHYMSINDSFYTSHLHVSLDGLKFSDDAAEPNNDAEALVNGFEHGGLAKLPLDNKTSTPKKEGLAPPSPSLVSDLLSELNISEIQKLKQQLMQMEREKAGLLATLQDTQKQLEHTRGSLSEQQEKVTRLTENLSALRRLQASKERQTALDNEKDRDSHEDGDYYEVDINGPEILACKYHVAVAEAGELREQLKALRSTHEAREAQHAEEKGRYEAEGQALTEKVSLLEKASRQDRELLARLEKELKKVSDVAGETQGSLSVAQDELVTFSEELANLYHHVCMCNNETPNRVMLDYYREGQGGAGRTSPGGRTSPEARGRRSPILLPKGLLAPEAGRADGGTGDSSPSPGSSLPSPLSDPRREPMNIYNLIAIIRDQIKHLQAAVDRTTELSRQRIASQELGPAVDKDKEALMEEILKLKSLLSTKREQITTLRTVLKANKQTAEVALANLKSKYENEKAMVTETMMKLRNELKALKEDAATFSSLRAMFATRCDEYITQLDEMQRQLAAAEDEKKTLNSLLRMAIQQKLALTQRLELLELDHEQTRRGRAKAAPKTKPATPSVSHTCACASDRAEGTGLANQVFCSEKHSIYCD
B1: the “stoichiometry N” value was 2.

The record behind these values is publication doi:10.1101/2022.01.05.474964 (bioRxiv, 2022).
